Four variants from IntAct's records for PubMed 20664522 can be followed below.

B1: CAP-Gly domain-containing linker protein 1 (Homo sapiens), P30622 (parent)
chain: MSMLKPSGLKAPTKILKPGSTALKTPTAVVAPVEKTISSEKASSTPSSETQEEFVDDFRVGERVWVNGNKPGFIQFLGETQFAPGQWAGIVLDEPIGKNDGSVAGVRYFQCEPLKGIFTRPSKLTRKVQAEDEANGLQTTPASRATSPLCTSTASMVSSSPSTPSNIPQKPSQPAAKEPSATPPISNLTKTASESISNLSEAGSIKKGERELKIGDRVLVGGTKAGVVRFLGETDFAKGEWCGVELDEPLGKNDGAVAGTRYFQCQPKYGLFAPVHKVTKIGFPSTTPAKAKANAVRRVMATTSASLKRSPSASSLSSMSSVASSVSSRPSRTGLLTETSSRYARKISGTTALQEALKEKQQHIEQLLAERDLERAEVAKATSHVGEIEQELALARDGHDQHVLELEAKMDQLRTMVEAADREKVELLNQLEEEKRKVEDLQFRVEEESITKGDLEQKSQISEDPENTQTKLEHARIKELEQSLLFEKTKADKLQRELEDTRVATVSEKSRIMELEKDLALRVQEVAELRRRLESNKPAGDVDMSLSLLQEISSLQEKLEVTRTDHQREITSLKEHFGAREETHQKEIKALYTATEKLSKENESLKSKLEHANKENSDVIALWKSKLETAIASHQQAMEELKVSFSKGLGTETAEFAELKTQIEKMRLDYQHEIENLQNQQDSERAAHAKEMEALRAKLMKVIKEKENSLEAIRSKLDKAEDQHLVEMEDTLNKLQEAEIKVKELEVLQAKCNEQTKVIDNFTSQLKATEEKLLDLDALRKASSEGKSEMKKLRQQLEAAEKQIKHLEIEKNAESSKASSITRELQGRELKLTNLQENLSEVSQVKETLEKELQILKEKFAEASEEAVSVQRSMQETVNKLHQKEEQFNMLSSDLEKLRENLADMEAKFREKDEREEQLIKAKEKLENDIAEIMKMSGDNSSQLTKMNDELRLKERDVEELQLKLTKANENASFLQKSIEDMTVKAEQSQQEAAKKHEEEKKELERKLSDLEKKMETSHNQCQELKARYERATSETKTKHEEILQNLQKTLLDTEDKLKGAREENSGLLQELEELRKQADKAKAAQTAEDAMQIMEQMTKEKTETLASLEDTKQTNAKLQNELDTLKENNLKNVEELNKSKELLTVENQKMEEFRKEIETLKQAAAQKSQQLSALQEENVKLAEELGRSRDEVTSHQKLEEERSVLNNQLLEMKKRESKFIKDADEEKASLQKSISITSALLTEKDAELEKLRNEVTVLRGENASAKSLHSVVQTLESDKVKLELKVKNLELQLKENKRQLSSSSGNTDTQADEDERAQESQIDFLNSVIVDLQRKNQDLKMKVEMMSEAALNGNGDDLNNYDSDDQEKQSKKKPRLFCDICDCFDLHDTEDCPTQAQMSEDPPHSTHHGSRGEERPYCEICEMFGHWATNCNDDETF
B2: CAP-Gly domain-containing linker protein 1 (Rattus norvegicus (Rat)), Q9JK25 (parent)
chain: MSMLKPSGLKAPTKILKPGSTALKTPAAAAAPLEKTVPSEKASGPPSSETQEEFVDDFRVGERVWVNGNKPGFIQFLGETQFAPGQWAGIVLDEPIGKNDGSVAGVRYFQCEPLKGIFTRPSKLTRKVQAEDEANGLQTAHARAASPLSTAAATMVSSSPATPSNIPQKPSQPVAKETSATPQISNLTKTASESISNLSEAGSVKKGERELKIGDRVLVGGTKAGVVRFLGETDFAKGEWCGVELDEPLGKNDGAVAGTRYFQCQPKYGLFAPVHKVTKIGFPSTTPAKAKAAAVRRVMATTPASLKRSPSASSLSSMSSVASSVSSKPSRTGLLTETSSRYARKISGTTALQEALKEKQQHIEQLLAERDLERAEVAKATSHVGEIEQELALARDGHDQHVLELEAKMDQLRTMVEAADREKVELLNQLEEEKRKVEDLQFRVEEESITKGDLETQTKLEHARIKELEQSLLFEKTKADKLQRELEDTRVATVSEKSRIMELEKDLALRVQEVAELRRRLESSKPPGDVDMSLSLLQEISALQEKLEVTHTDHQNEVTSLKDHFGTREEMFQKEIKALHAATEKLSKENESLRSKLDHANKENSDVIALWKSKLETAIASHQQAMEELKVSFSKGIGTDSAEFAELKTQIERLRLDYQHEIESLQSKQDSERSAHAKEMESMKAKLMKIIKEKEDSLEAVKARLDTAEDQHLVEMEEMLSKLQEAEIKKEKFASASEEAVSTQTSMQDTVNKLHQKEEQFNMLSSELEKLRENLTDMEAKFKEKDEREDQLVKAKEKLENDIAEIMKMSGDNSSQLTKMNDELRLKERSVEELQLKLTKANENASLLQKSIGEVTLKAEQSQQEAAKKHEEEKKELENKLLELEKKMETSHYQCQDLKAKYEKASSETKIKHEEILQNFQKMLVDTEDKLKAAQEANRDLMQDMEELKSQADKAKAAQTAEDAMQIMEQMTKEKTETLASLEDTKQTNAKLQSELDTLKENNLKTVEELNKSKELLNEENQKMEEFKKEIETLKQAAAQKSQQLSALQEENVKLAEELGRTRDEVTSHQKLEEERSVLNNQLLEMKKSLPSNTLRESEYRKDADEEKASLQKSISLTSALLTEKDAELEKLRNEVTVLRGENASAKSLHSVVQTLESDKVKLELKVKNLELQLKENKRQLSSSSGNTDVQTEEDERAQESQQMIDFLNSVIVDLQRKNQDLKMKVEMMSEAALNGNGEDPNSYDSDDQEKQSKKKPRLFCDICDCFDLHDTEDCPTQAQMSEDPPHSTHHGSRSEERPYCEICEMFGHWATNCNDDETF

In the first assay the parent is B1. The conditions noted are these: with csk2b_human CSNK2B.
Target sequence in this assay (P67870 whole entry): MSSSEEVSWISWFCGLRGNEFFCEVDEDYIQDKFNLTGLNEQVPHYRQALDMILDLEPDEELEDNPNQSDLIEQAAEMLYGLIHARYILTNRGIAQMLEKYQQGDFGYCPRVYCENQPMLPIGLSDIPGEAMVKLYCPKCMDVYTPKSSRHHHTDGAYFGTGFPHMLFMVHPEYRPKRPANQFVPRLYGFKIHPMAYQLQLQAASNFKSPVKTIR
For the variant S195A, the “effect of a mutation on the interaction” value is on record as “decreasing interaction”.

The variants in a further assay derive from B2. The settings on record: with csk2b_human CSNK2B.
Target sequence in this assay (P67870 whole entry): as above
For S194E, the “effect of a mutation on the interaction” value was “increasing interaction”.

Another assay covers variants of B2. The conditions noted are these: with dctn1_human DCTN1, Q14203.
dctn1_human DCTN1, Q14203, sequence (Q14203 whole entry): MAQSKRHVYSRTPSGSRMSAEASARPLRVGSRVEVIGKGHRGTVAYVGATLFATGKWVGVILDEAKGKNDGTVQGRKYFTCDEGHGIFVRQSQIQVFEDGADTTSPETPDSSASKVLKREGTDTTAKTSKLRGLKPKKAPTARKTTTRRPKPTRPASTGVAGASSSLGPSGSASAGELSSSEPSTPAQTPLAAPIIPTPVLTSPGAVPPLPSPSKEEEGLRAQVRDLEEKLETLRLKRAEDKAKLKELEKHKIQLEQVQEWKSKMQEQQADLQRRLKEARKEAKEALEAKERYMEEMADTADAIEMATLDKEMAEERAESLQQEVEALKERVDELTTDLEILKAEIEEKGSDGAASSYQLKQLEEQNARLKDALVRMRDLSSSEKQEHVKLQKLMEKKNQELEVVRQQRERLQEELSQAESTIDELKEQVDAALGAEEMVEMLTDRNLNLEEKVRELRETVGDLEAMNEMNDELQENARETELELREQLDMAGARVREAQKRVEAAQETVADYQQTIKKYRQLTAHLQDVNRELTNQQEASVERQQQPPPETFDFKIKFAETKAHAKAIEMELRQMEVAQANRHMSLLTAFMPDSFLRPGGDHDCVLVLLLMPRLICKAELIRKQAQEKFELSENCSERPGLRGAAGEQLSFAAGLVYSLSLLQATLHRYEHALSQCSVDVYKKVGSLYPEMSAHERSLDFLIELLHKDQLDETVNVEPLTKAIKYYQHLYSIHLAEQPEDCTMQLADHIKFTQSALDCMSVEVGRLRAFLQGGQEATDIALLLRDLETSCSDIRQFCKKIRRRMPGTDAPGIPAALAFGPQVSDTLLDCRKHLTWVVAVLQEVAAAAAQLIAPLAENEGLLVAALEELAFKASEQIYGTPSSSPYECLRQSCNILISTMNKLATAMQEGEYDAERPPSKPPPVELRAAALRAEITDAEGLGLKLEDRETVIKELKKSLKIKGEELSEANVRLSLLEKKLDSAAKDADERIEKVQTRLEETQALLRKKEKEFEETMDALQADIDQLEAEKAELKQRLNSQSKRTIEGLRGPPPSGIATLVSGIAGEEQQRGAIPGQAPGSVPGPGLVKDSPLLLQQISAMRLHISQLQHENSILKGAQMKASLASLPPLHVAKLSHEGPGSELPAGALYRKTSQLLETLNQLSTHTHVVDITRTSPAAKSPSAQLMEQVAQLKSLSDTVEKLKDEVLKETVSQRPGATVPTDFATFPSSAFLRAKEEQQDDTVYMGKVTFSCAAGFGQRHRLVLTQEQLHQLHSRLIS
Regarding S194A, the “effect of a mutation on the interaction” value was “disrupting interaction”.

In another assay the parent is B2. The settings on record: with dctn1_human DCTN1, Q14203. The source holds these as a separate data set.
As for S1246A, the “effect of a mutation on the interaction” value is “decreasing interaction”.
